Data: patent US20080113907A1, “Uses Of Galectin-2” (Charite-Universitat-Smedizin Berlin, priority 2004, published 2008)

Assays:
[1] = system: dextran sodium sulfate induced colitis; assay: Prevention of DSS induced acute colitis, disease activity index (DAI); type: in vivo, Balb/c mice
Experimental: Colitis was induced in 8- to 10-week-old, female, Balb/c mice (Jackson Laboratories, Bar Harbor, Me.) by adding 5% DSS (Sigma Chemical Co., St. Louis, Mo.) (Dextran Sodiumsulfate (DSS) to their drinking water and allowing them to drink ad libitum. Groups of mice were treated either with 1 mg/kg BW (body weight) galectin-2 intraperitoneally or PBS 2 h before DSS administration. Mice were weighed and inspected for diarrhea and rectal bleeding. Seven days after induction of colitis by DSS, mice were killed, their entire colon was resected, and its length was measured and weighed. The disease activity index (DAI; i.e., the combined score of weight loss and bleeding) was determined according to a standard scoring system.
The disease activity index: Loss in bodyweight: 0=no loss; 1=5% to 10%; 2=10% to 15%; 3=15% to 20%; 4 ? 20%.
Hemoccult: 0=no blood; 2=positive; 4=gross blood.
In this experiment the DAI ranges from 0 to 8. The higher the DAI score the more severely the animal had been affected by colitis.
Colitis was induced in 8- to 10-week-old, female, Balb/c mice (Jackson Laboratories, Bar Harbor, Me.) by adding 5% DSS (Sigma Chemical Co., St. Louis, Mo.) (Dextran Sodiumsulfate (DSS) to their drinking water and allowing them to drink ad libitum. Groups of respectively 10 mice were treated either with Galectin-2 subcutaneously (s.c.) or intraperitoneally (i.p.) 2 h before DSS administration. In one trial with 10 mice the doses of Galectin-2 was doubled (administered i.p.) and compared to the treatment of 10 mice with Tacrolimus (FK506) (administered i.p.) in equal concentrations. In parallel a group of 10 mice was treated with 0.9% NaCl instead of Galectin-2 as control. Mice were weighed and inspected for diarrhea and rectal bleeding. 10 days after induction of colitis by DSS, mice were killed, their entire colon was resected, and its length was measured and weighed. The disease activity index (DAI; i.e., the combined score of weight loss and bleeding) was determined according to a standard scoring system.
The disease activity index: Loss in body weight: 0=no loss; 1=5% to 10%; 2=10% to 15%; 3=15% to 20%; 4 ? 20%.

PBT [2] = assay: Cytokine secretion (cytometric bead array); type: cell-based, human
Experimental: To determine cytokine secretion, PBT were cultured for 48 h with or without anti-CD3 mAb and incubated in the presence or absence of 0, 10, or 50 μg/ml Gal-2. The supernatant was then collected and cytokine secretion determined by a cytometric bead array, performed according to the manufacturer's instruction (BD Pharmingen). Briefly, six bead populations with distinct fluorescence intensities, coated with capture antibodies specific for TNF-α, IFN-γ, IL-10, IL-5, IL-4, and IL-2 proteins, were mixed with PE-conjugated detection anti-bodies and incubated with recombinant standards or test sample to form sandwich complexes. Following acquisition of sample data using flow cytometry, the cytokine concentrations were calculated using the BD CBA analysis software.

PBT [3] = assay: Extent of apoptosis and necrosis (annexin-V, PI, DAPI staining); type: cell-based, human
Experimental: Apoptosis was determined by monitoring fragmentation of nuclear DNA and access of annexin V to c ell surface phosphatidylserine (PS). To detect fragmentation of nuclear DNA, T cells were cultured in the presence and absence of the respective galectins, with or without blocking antibodies or further activation for 48 h. Thereafter, cells were fixed in 0.2 ml of 37% formaldehyde for 10 min at room temperature. The cells were then treated with 1 ml PBS containing 0.2% Nonidet P-40 (Sigma-Aldrich) for 2 min at room temperature and then rinsed once in PBS. The apoptotic cells were detected by staining of nuclear DNA with 4,6-diamino-2-phenylindole (DAPI) (Calbiochem). DAPI was added at a concentration of 0.2 ng/ml of PBS and cells were incubated at room temperature for 20 min in this solution. Cells were rinsed twice in PBS and the coverslips were maintained cell side down on a microscope slide and analyzed using a Zeiss Axiovert 135M microscope (Carl Zeiss, Oberkochen, Germany). To detect early phases of apoptosis, access to PS was measured. Cells were cultured as described, harvested at the respective time points, stained with FITC-labeled annexin-V and PI and analyzed by flow cytometry using the CellQuest software program (BD Pharmingen). A minimum of 15,000 cells was monitored in each case.

B1: galectin-2: β-galactoside binding lectin, non-covalent dimer with subunits of about 14 kDa; recombinant human or rat (SEQ ID NO:1, 2) (protein)
chain: MAGELEVKNMDMKPGSTLKITGSIADGTDGFVINLGQGTDKLNLHFNPRFSESTIVCNSLDGSNWGQEQREDHLCFSPGSEVKFTVTFESDKFKVKLPDGHELTFPNRLGHSHLSYLSVRGGFNMSSFKLKE
**Q.** Which results are given for B1?
**A.** DAI (disease activity index) ([1]; 1 mg/kg BW i.p. 2 h before DSS, seven days after induction, mean ± SD, DAI 0 to 8, control 6.3 ± 2.30): 4.5 ± 2.1,; DAI (disease activity index) ([1]; 1 mg/kg i.p., 10 days after induction, control 6.5 ± 0.3): 5.0 ± 0.7,; DAI (disease activity index) ([1]; 1 mg/kg s.c., 10 days after induction, control 6.5 ± 0.3): 5.8 ± 0.7,; DAI (disease activity index) ([1]; 2 mg/kg i.p., 10 days after induction, control 6.5 ± 0.3): 2.6 ± 0.6,; IFN-γ production (PBT [2]; anti-CD3 activated T cells): downregulated significantly and dose-dependently; IL-2 secretion (PBT [2]; anti-CD3 activated T cells): not influenced; IL-4 secretion (PBT [2]; anti-CD3 activated T cells): not altered; IL-5 secretion (PBT [2]; anti-CD3 activated T cells): increasing; IL-10 secretion (PBT [2]; anti-CD3 activated T cells): increasing; TNF-α production (PBT [2]; anti-CD3 activated T cells): downregulated significantly and dose-dependently; cytokine production of resting T cells (PBT [2]; resting T cells): failed to modulate cytokine production of resting T cells; time to induction of apoptosis (PBT [3]): 6 to 12 h; time course of annexin-V staining (PBT [3]; 50 μg/ml, anti-CD3): gradual increase over 72 h; nuclear fragmentation (DAPI staining) (PBT [3]; 25 and 50 μg, data not shown): induce nuclear fragmentation; T cell apoptosis (annexin-V) (PBT [3]; PBT activated by anti-CD3 mAbs): induced a dose-dependent apoptosis; T cell necrosis (PI) (PBT [3]; PBT activated by anti-CD3 mAbs): albeit to a much lesser extent, necrosis; apoptosis of T cells from patients with RA or CD (PBT [3]; anti-CD3, 48 hours, 0, 10, 25, 50 μg/ml): induces apoptosis; percentage of T cell apoptosis relative to galectin-1 (PBT [3]; anti-CD3 activated PBT): higher than that induced by galectin-1; apoptosis in CD4 and CD8 positive T cell populations (PBT [3]; data not shown): comparable in CD4 and CD8 positive T cell populations; T cell apoptosis (annexin-V) (PBT [3]; without cell stimulation, 0, 10, 25, 50, 100 μg/ml): failed to induce T cells apoptosis
